Where two headings read alike, the source gives them in different places.
How the values were obtained:
[1] = target: T1, prefusion stabilized SARS-CoV-2 S ectodomain (SARS-CoV-2, UniProt P0DTC2 14-1208); test: ELISA, coated S ectodomain [cont'd]
T1 construct: also called SARS-CoV-2 spike ectodomain; ectodomain of the spike (S) homotrimer of SARS-CoV-2

[2] = target: T1, prefusion stabilized SARS-CoV-2 S …; test: ELISA, coated S ectodomain [cont'd]; remark: listed apart in the source
[3] = target: T1, prefusion stabilized SARS-CoV-2 S …; test: assay not stated; row Binding Affinity Spike Trimer, construct not given

B1: MnC4t2p2_A4 (antibody, V domains shown)
VH: QVQLVQSGSELKKPGASVKISCKASGYIFINYAMNWVRQAPGQGLEWMGWINTNTGNPTYAQDFTGRFVFSLDTSLSTAYLQISSLEAEDTAVYYCAKIGSRNSLGVWGQGTLVTVSA
VL: EIVLTQSPGTLSLSPGERATLSCRASHSVDRSYLAWYQQKPGLAPRLLIYGASSRATGIPDRFSGSGSGTDFTLTISRLEPEDFALYYCQHFGTSSVTFGRGTRLEIK
[1]
  EC50: 0.02 µg/mL

B2: MnC4t2p1_B3 (antibody, V domains shown)
VH: EVQLVESGGHLVQPGRSLRLSCAASGFTFDDYAMHWVRQVPGKGLEWVSGISWNGGILDYADSVKGRFTISRDNAKNSLYLHMRSLRTDDTALYYCAKDLRRQDYYADWYFDLWGRGTLVTVSS
VL: DIQMIQSPSSVSASVGDRVTITCRASQGISSWLAWYQQKPGKAPKLLIYAASTLLSAVPSRFSGSGSGTDFTLTISSLQPEDFATYYCQQGNSFPFTFGPGTIVDV
[2]
  EC50: 0.06 µg/mL

B3: MnC4t2p1_E6 (antibody, V domains shown)
VH: EVQLVESGGHLVQPGRSLRLSCAASGFTFDDYAMHWVRQVPGKGLEWVSGISWNGGILGYADSVKGRFTISRDNAKNSLYLQMRSLRTDDTALYYCAKDLRRQDYYADWYFDLWGRGTLVTVSS
VL: DIQMTQSPSSVSASVGDRVTITCRASQGISSWLAWYQQKPGKAPKLLIYAASTLLSAVPSRFSGSGSGTDFTLTISSLQPEDFATYYCQQGNSFPFTFGPGTKVDV
[1]
  EC50: 0.03 µg/mL

B4: DZIF-10c (antibody, V domains shown)
VH: QVQLVESGGGVVQPGRSLRLSCAATGFTFRRYGMHWVRQAPGKGLEWVAGILFDGSNKYYVDSVKGRFTISRDSSRNTLYLQLNSLRREDTAVYYCAKGGDYEWELLESWGQGTLVTVSS
VL: DIQMTQSPSTVSASVGDRVTITCRASQSIDNWLAWYQEKPGKAPKVLIYKASSLESGVPSRFSGRGSGTEFTLTISSLQPGDFATYYCQHYHSFPLTFGGGTKVDIKR
notes: also called HbnC3t1p1_F4(-K); EX14870
[3]
  Kd: 0.65 nM

B5: MnC5t2p1_G1 (antibody, V domains shown)
VH: QMQLVQSGPEVKKPGTSVKVSCKASGFTFTSSAVQWVRQARGQRLEWIGWIVVGSGNTDYAQKFQERVTITRDVSTSTAYMELSSLRSEDTAVYYCAAPRCSGGSCYDGFDIWGQGTMVTVSS
VL: EIVLTQSPGTLSLSPGERATLSCRASQSVSSSYLAWYQHKPGQAPRLLICGASSRATGIPDRFSGSGSGTGFTLTISRLEPEDFAVYYCQQYGSSPWTFGQGTKVEIK
[1]
  EC50: 0.03 µg/mL

B6: MnC4t1p1_A11 (antibody, V domains shown)
VH: EVQLVESGGGLVQPGGSLRLSCAASGFTFSSYSMNWVRQAPGKGLEWVSYISSSSNTRYYTDSVMGRFTISRDNAKNSLFLQMNSLRAEDTAVYYCASSKGFCSGGSCSDYWGQGTLVTVSS
VL: EIVLTQSPGTLSLSPGERATLSCRASQSVSSSYLAWYQQKPGQAPRLLIYGVSSRATGIPDRFSGSGSGTDFTLTISRLEPEDFVVYYCHQYGSSPWTFGQGTKVEIK
[2]
  EC50: 0.05 µg/mL

From US20210371503A1 (UNIVERSITY OF COLOGNE, published 2021)
